In article PMC6331642:

B1: WLN4, the fourth metal-binding domain of Wilson's disease protein (ATP7B) (protein)
chain: TCSTTLIAIAGMTCASCVHSIEGMISQLEGVQQISVSLAEGTATVLYNPSVISPEELRAAIEDMGFEASVVS
B2: Atox1 copper chaperone (protein)
chain: MPKHEFSVDMTCGGCAEAVSRVLNKLGGVKYDIDLPNKKVCIESEHSMDTLLATLKKTGKTVSYLGLE

Columns and labels:
P35670 [1] = assay: SEC-MALS; apo-WLN4 after incubation with TM; Superdex 75 10/300 GL, 50 mM MES pH 6.0, 150 mM NaCl, room temperature
P35670 [2] = assay: SEC-MALS; Cu-WLN4 after incubation with TM; Superdex 75 10/300 GL, 50 mM MES pH 6.0, 150 mM NaCl, room temperature
O00244 [3] = assay: SEC-MALS; apo-Atox1 after reaction with TM, with 4.5 mM reducing agents
O00244 [4] = assay: SEC-MALS; Cu-Atox1 after reaction with TM, with 4.5 mM reducing agents

Row | Protein | N with TM (P35670 [1]) | N with TM (P35670 [2]) | N with TM (O00244 [3]) | N with TM (O00244 [4])
1 | B1 | 2 | 2 | – | –
2 | B2 | – | – | both apo-Atox1 and Cu-Atox1 generated dimeric adducts following reaction with TM | both apo-Atox1 and Cu-Atox1 generated dimeric adducts following reaction with TM
